Test results reported in publication PMC3024951 (Molecular Brain, 2011).
Bridges are numbered along the chain shown (N, C = ends). Where no end group is shown, it is not given here.

T1: Extracellular IL-6R (interleukin-6 receptor) (UniProt P08887 20-365)
T1 construct: also called soluble extracellular IL-6R; source: bought: PeproTech
T1 sequence: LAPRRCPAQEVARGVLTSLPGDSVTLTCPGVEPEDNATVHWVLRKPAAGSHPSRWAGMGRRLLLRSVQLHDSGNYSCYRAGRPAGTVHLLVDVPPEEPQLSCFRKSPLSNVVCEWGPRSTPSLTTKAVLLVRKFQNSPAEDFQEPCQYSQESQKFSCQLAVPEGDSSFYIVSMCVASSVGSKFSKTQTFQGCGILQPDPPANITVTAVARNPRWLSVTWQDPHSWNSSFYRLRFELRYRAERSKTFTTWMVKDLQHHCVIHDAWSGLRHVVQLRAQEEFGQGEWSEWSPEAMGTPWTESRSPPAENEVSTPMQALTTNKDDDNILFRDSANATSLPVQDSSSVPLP


Legend:
[1] = molecular target: Extracellular IL-6R (interleukin-6 receptor) (UniProt P08887)
[2] = molecular target: T1, Extracellular IL-6R (interleukin-6 …); assay: ELISA; […] (200 nM), 30 min; […]; conditions: both partners purified
[3] = molecular target: T1, Extracellular IL-6R (interleukin-6 …); assay: ELISA; competitive inhibition: 45 nM biotinylated IL-6 and 1 nM-2 μM protein/peptide with IL-6R coated beads (350 nM) in PBS-BSA, 25°C, 1 h; detected with SA-HRP; conditions: both partners purified
[4] = molecular target: T1, Extracellular IL-6R (interleukin-6 …); assay: cell-based or functional assay

Row | Binder | EC50 (ED50), proliferation of DS-1 cells in the absence of IL-6 [1] | Kd [2] | IC50 [3] | IC50, inhibition of the IL-6 dependent proliferation of DS-1 cells (IL-6 with IL-6R) [4]
1 | LVCYAPLPYTPGTLETGPDDFTCV (disulfide 3-23) [14-L1] | 0.03 µM | – | – | –
2 | R10-13 (designed binder) LVCYQLLACRPGTLETCPDDFTCVATRHTLGHNLTQYCSHAHAIPTPRARTGCCQTDKCNG | – | 48 ± 8 nM | 113 ± 7 nM | 1.4 µM
3 | R10-15 (designed binder) LVCYQLLACRPGTLETCPDDFTCVATRHTLGHNLTQYCSHAYAIPACETPASCCQTDKCNG | – | 115 ± 9 nM | 102 ± 13 nM | –
